Data from article PMC7260706.

Target: T1, RelE (UniProt P0C077 1-95)
T1 sequence: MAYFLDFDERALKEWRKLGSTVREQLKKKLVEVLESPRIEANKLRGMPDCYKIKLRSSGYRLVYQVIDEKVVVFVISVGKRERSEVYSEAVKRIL
Assay: intrinsic protein fluorescence

B1: unmodified mRNA (ssRNA)
RNA: GGCAAGGAGGUAAAAAUGUAGAAAAACAAU
Question: Does B1 bind?
Answer: Result: binds
